Laboratory results as given in patent US6998240B2, “Screen for selective inhibitors or activators of Smad protein function” (Wisconsin Alumni Research Foundation, priority 2001, dated 2006).
Blank lines part the entries; values can stand above or below the substance they belong to. No end group written: not given here.

Columns and labels:
[1] = target: T1, Smad2-P (Homo sapiens, UniProt Q15796); experiment: HTRF assay of biotin-FAST peptide binding to Smad2-P (competition); details: for Average Normalized Counts / Percent of Control (minus Background): Biotin-FAST binding to Smad2-P
T1 construct: Smad2; 1–467; pBlueBac; His; made in house; host or cells: Sf9 insect cells (baculovirus), co-infected with virus for membrane-targeted human Alk5 T204D
Source text: To establish HTRF assays for Smad protein interactions, we have used reagents from Wallac-Perkin Elmer and Packard that include Europium-cryptate coupled to α-His epitope tag antibody, α-GST antibody or Streptavidin. As acceptor fluorophores we have used allophycocyanin (Packard's XL665) coupled to Streptavidin or direct labeling of GST-fusion protein with IC5 (Dojindo). Reagents are mixed in a 50 microliter volume in the wells of a 384 Black non-treated microwell plate (Corning) and HTRF detected in a Wallac Victor V multimode plate reader. The reader detects emission at 615 nm from the Europium chelate donor and at 665 nm from the APC or IC5 acceptor. Background, cross-talk and high FRET wells can be indicated on the plate map to allow the machine to compute a normalized value as a ratio Rn=(ET/D) Dmax where ET=A−BI−(C×D). • A—Fluorescence at 665 nm • BI—Blank (buffer only) at 665 nm • D—Fluorescence at 615 nm • C—Cross-talk correction value calculated from wells containing only donor fluorophore • (from “Quench Correction for LANCE TR-FRET” by Perkin-Elmer Wallace)
Over the past several months we have developed three HTRF assays for Smad binding interactions. All three assays use a Eu-chelate α-His epitope tag antibody as the donor. The antibody recognizes the hexahistidine epitope tag on the Smad proteins produced in the baculovirus expression system described above. As acceptors, we have used Streptavidin conjugated to allophycocyanin (Packard) that binds to biotinylated peptides. The peptides are synthesized to comprise the Smad interaction domain motif from human FAST or c-Jun (FIG. 3). The FAST 24-mer amino acid sequence is based on the homology between FAST, Mixer and Milk reported by Germain and colleagues (Germain, S., et al., supra, 2000). The24-mer C-JUN sequence is based on studies using deletions and gene fragments to define the Smad interaction motif (Zhang, Y., et al., supra, 1998; Liberati, N. T. et al., Proc. Natl. Acad. Sci. USA 96:4844–9, 1999). We also have developed an HTRF assay using IC5-GST-CBP, a fusion protein comprising the Smad interaction domain motif from CBP (a generous gift of Dr. Yigong Shi, Princeton University).
The assays are done in a 50 μl volume in the well of a 384-well plate. The assay buffer, as recommended by Packard for their HTRF reagents is 50 mM K-Hepes pH 7.0, 400 mM KF and 0.1% BSA. The high concentration of KF is recommended for the Eu(K) reagents from Packard. […] We have also optimized through many titrations the amount of Smad protein (220 ng/well, ˜4 pmoles per well of monomer), the concentration of biotinylated peptide (1 uMolar for FAST and C-JUN), the amount of Eu-anti-His tag antibody (36 ng/well) and the amount of Streptactin-APC (0.5 μg/well).
We used the FAST-SmadP HTRF assay described above. […] After 1 hr at room temperature, Streptavidin-APC was added to each well and 30 minutes later the fluorescence emissions at 615 nm and 665 nm were read in a PE-Wallac Victor V.

[2] = target: T2, Smad3-P (Homo sapiens, UniProt P84022); experiment: HTRF assay of FAST / Jun Smad interaction motif peptide binding to Smad3-P
T2 construct: Smad3; 1–425; pBlueBac; His; made in house; host or cells: Sf9 insect cells (baculovirus), co-infected with virus for human Alk5 T204D
Procedure: The HTRF assay for detecting Smad protein interactions was used to quantify binding between the FAST Smad interaction motif and purified Smad 3 (phosphorylated). The indicated amounts of peptide or peptide aptamer were added as competitive inhibitors.
All three assays use a Eu-chelate α-His epitope tag antibody as the donor. The antibody recognizes the hexahistidine epitope tag on the Smad proteins produced in the baculovirus expression system described above. […] The peptides are synthesized to comprise the Smad interaction domain motif from human FAST or c-Jun (FIG. 3).

[3] = target: phosphorylated Smad2 (His-tagged, full length, from Sf9 cells co-infected with Alk5 T204D virus) (UniProt Q15796); experiment: HTRF competition against biotinylated FAST peptide
[4] = target: phosphorylated Smad2 (His-tagged, full length, from Sf9 cells co-infected with Alk5 T204D virus) (UniProt Q15796); experiment: HTRF competition, biotin-FAST on Smad2-P, inhibitor at 20 µM
[5] = target: phosphorylated Smad2 (His-tagged, full length, from Sf9 cells co-infected with Alk5 T204D virus) (UniProt Q15796); experiment: HTRF competition, biotin-FAST on Smad2-P, inhibitor at 50 µM
[6] = target: IC5-labelled GST-CBP fusion protein [GST: P08515]; experiment: HTRF, Eu-anti-GST donor plus GST-CBP-IC5 acceptor, well B07
[7] = target: IC5-labelled GST-CBP fusion protein [GST: P08515]; experiment: HTRF, Eu-anti-GST donor plus GST-CBP-IC5 acceptor, well B08
[8] = target: unphosphorylated Smad2 (His-tagged, full length) (UniProt Q15796); experiment: HTRF, well D12 Smad2
[9] = target: unphosphorylated Smad2 (His-tagged, full length) (UniProt Q15796); experiment: HTRF, well D13 Smad2
[10] = target: unphosphorylated Smad2 (His-tagged, full length) (UniProt Q15796); experiment: HTRF, well D14 Smad2
[11] = target: Smad4 (Strep-tagged, full length) (UniProt Q13485); experiment: HTRF, well D17 Smad4
Sequence of Smad4 (Strep-tagged, full length) (Q13485 whole entry): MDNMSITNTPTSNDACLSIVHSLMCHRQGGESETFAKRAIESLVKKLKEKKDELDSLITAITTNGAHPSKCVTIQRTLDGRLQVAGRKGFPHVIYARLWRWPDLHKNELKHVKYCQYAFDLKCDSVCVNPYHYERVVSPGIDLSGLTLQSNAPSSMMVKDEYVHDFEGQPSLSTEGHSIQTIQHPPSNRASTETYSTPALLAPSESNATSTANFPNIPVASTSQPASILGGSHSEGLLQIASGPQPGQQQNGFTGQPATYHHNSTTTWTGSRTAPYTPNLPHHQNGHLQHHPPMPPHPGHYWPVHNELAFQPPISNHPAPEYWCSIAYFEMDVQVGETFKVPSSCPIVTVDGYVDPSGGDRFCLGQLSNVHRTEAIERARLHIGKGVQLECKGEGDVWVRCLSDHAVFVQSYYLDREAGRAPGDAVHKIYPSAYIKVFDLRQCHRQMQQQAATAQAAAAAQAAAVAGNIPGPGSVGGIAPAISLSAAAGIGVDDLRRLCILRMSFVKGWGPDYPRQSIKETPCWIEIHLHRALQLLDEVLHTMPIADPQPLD

[12] = target: Smad4 (Strep-tagged, full length) (UniProt Q13485); experiment: HTRF, well D18 Smad4
[13] = target: Smad4 (Strep-tagged, full length) (UniProt Q13485); experiment: HTRF, well D19 Smad4
[14] = target: Smad4 (Strep-tagged, full length) (UniProt Q13485); experiment: HTRF, well D20 Smad4
[15] = target: phosphorylated Smad2 (His-tagged, full length, from Sf9 cells co-infected with Alk5 T204D virus) (UniProt Q15796); experiment: HTRF, well D05 Smad2P
[16] = target: phosphorylated Smad2 (His-tagged, full length, from Sf9 cells co-infected with Alk5 T204D virus) (UniProt Q15796); experiment: HTRF, well D09 Smad2P
[17] = target: phosphorylated Smad3 (His-tagged, full length) (UniProt P84022); experiment: HTRF, well D15 Smad3P
Sequence of phosphorylated Smad3 (His-tagged, full length) (P84022 whole entry): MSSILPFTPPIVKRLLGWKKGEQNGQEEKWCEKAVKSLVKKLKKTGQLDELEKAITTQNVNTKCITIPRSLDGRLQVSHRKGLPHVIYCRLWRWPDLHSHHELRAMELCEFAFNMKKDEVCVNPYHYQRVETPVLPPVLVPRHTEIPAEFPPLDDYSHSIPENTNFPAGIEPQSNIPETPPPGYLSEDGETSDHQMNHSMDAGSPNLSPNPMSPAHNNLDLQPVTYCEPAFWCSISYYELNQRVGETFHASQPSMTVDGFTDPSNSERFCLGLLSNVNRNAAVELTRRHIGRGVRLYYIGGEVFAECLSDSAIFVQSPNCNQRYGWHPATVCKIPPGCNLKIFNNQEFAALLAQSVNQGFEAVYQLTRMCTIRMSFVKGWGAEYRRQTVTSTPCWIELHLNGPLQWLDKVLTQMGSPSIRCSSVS

[18] = target: phosphorylated Smad3 (His-tagged, full length) (UniProt P84022); experiment: HTRF, well D16 Smad3P
[19] = target: unphosphorylated Smad2 (His-tagged, full length) (UniProt Q15796); experiment: HTRF, well D11 Smad2 (No Smad well: 260)
[20] = target: phosphorylated Smad2 (His-tagged, full length, from Sf9 cells co-infected with Alk5 T204D virus) (UniProt Q15796); experiment: HTRF, IC5-GST-CBP binding to Smad2-P, no inhibitor
[21] = target: phosphorylated Smad2 (His-tagged, full length, from Sf9 cells co-infected with Alk5 T204D virus) (UniProt Q15796); experiment: HTRF, well D06 Smad2P with unlabelled GST-CBP competitor added after equilibrium
[22] = target: phosphorylated Smad2 (His-tagged, full length, from Sf9 cells co-infected with Alk5 T204D virus) (UniProt Q15796); experiment: HTRF, well D10 Smad2P with unlabelled GST-CBP competitor added after equilibrium
[23] = target: phosphorylated Smad2 (His-tagged, full length, from Sf9 cells co-infected with Alk5 T204D virus) (UniProt Q15796); experiment: HTRF competition, biotin-FAST on Smad2-P, inhibitor at 40 µM

- competition for Biotin-FAST binding to Smad-2P (in words) [1]: inability
- Average Normalized Counts ([1]; 20 μM inhibitor peptide): 1984
- Percent of Control (minus Background) ([1]; 20 μM inhibitor peptide): 106%
- Average Normalized Counts ([1]; 40 μM inhibitor peptide): 1964
- Percent of Control (minus Background) ([1]; 40 μM inhibitor peptide): 105%
Substance: JUN 24 mer: 24-mer peptide of the Smad interaction motif from c-Jun (LKQKVMNHVNSGCQLMLTQQLQTF)

- Average Normalized Counts [4]: 2020 counts
- Percent of Control (minus Background) [4]: 108%
- Average Normalized Counts [5]: 1980 counts
- Percent of Control (minus Background) [5]: 106%
Substance: hFAST-13mer peptide (from UniProt O75593 331-343)

- fold higher IC50 than GST-trx-FAST [3]: 10 fold
Substance: GST-trx-FAST aptamer with two amino acids deleted from the C-terminus of the FAST SIM (from UniProt O75593 327-348) (designed binder)

- Emission 665 [6]: 5170 counts
- Normalized Counts [6]: 6800 counts
- Emission 665 [7]: 9450 counts
- Normalized Counts [7]: 9110 counts
Substance: Europium-cryptate αGST antibody (Packard)

- Normalized Counts [8]: 315 counts
- Normalized Counts [9]: 311 counts
- Normalized Counts [10]: 327 counts
- Normalized Counts [11]: 149 counts
- Normalized Counts [12]: 206 counts
- Normalized Counts [13]: 252 counts
- Normalized Counts [14]: 150 counts
- Normalized Counts [15]: 593 counts
- Normalized Counts [16]: 617 counts
- Normalized Counts [17]: 665 counts
- Normalized Counts [18]: 683 counts
- Normalized Counts [19]: 334 counts
- Average Normalized Counts [20]: 751 counts
- Percent of Control (minus Background) [20]: 100%
- Normalized Counts [21]: 322 counts
- Normalized Counts [22]: 353 counts
Substance: IC5-labelled GST-CBP fusion protein (from UniProt P08515 1-218)

The remaining lines, values behind:

Substance: GST-trx: 35 kd GST-trx fusion protein, scaffold without SIM insert [reference compound]
- effect on binding (in words) ([1]; 8 μg/50 ul): very little effect
- competitive inhibition of FAST Smad interaction motif binding to Smad 3 (phosphorylated) (in words) [2]: did not interfere with binding

Substance: GST-trx-FAST aptamer with two amino acids deleted from the N-terminus of the FAST SIM (from UniProt O75593 329-350) (designed binder)
- fold higher IC50 than GST-trx-FAST [3]: 10 fold

Substance: C-JUN: biotinylated 24-mer c-Jun Smad interaction motif peptide, HTRF ligand (LKQKVMNHVNSGCQLMLTQQLQTF; also: biotinylated, site not given here)
- time for binding reaction to reach equilibrium ([2]; 1 μM biotinylated peptide): about 90 minutes

Substance: cJUN-24mer peptide (unlabelled) (from UniProt P05412 308-331)
- Average Normalized Counts [4]: 1980 counts
- Percent of Control (minus Background) [4]: 106%
- Average Normalized Counts [23]: 1960 counts
- Percent of Control (minus Background) [23]: 105%

Substance: hFAST-24mer PP>AA peptide (from UniProt O75593 327-350)
- Average Normalized Counts [4]: 1920 counts
- Average Normalized Counts [5]: 1860 counts
